Assay results reported in patent US20130157289A1 (Genentech, published 2013).

Key:
human STEAP-1 [1] = target: T1, human STEAP-1 (human, UniProt Q9UHE8 1-339); experiment: FACS of display-normalised Fab phage, aligned histograms; no cell name on the panel, traces as in FIG. 6A (LB50)
T1 construct: Six-transmembrane cell surface antigen; Exogenous full length STEAP-1 stably expressed in 293 cells (LB50, LB48, LB53) and PC3 cells (PS5.4); endogenous in LNCaP / LNCaP-BR cells; also called Six Transmembrane Epithelial Antigen of the Prostate 1
T1 sequence (Q9UHE8 other isoform, or with tags, fused parts or gaps): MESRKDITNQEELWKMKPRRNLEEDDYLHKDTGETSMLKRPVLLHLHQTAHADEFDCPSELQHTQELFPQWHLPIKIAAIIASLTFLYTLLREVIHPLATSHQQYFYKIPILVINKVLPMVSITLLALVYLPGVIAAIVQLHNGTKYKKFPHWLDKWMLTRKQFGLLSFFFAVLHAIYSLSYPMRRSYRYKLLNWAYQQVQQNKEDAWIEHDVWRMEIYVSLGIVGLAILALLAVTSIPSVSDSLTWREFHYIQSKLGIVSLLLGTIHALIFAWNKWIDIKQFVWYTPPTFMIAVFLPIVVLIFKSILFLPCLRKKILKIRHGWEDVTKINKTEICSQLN
Protocol: Phage expressing Fab variants were first assessed for their Fab display level using an phage ELISA used to detect a […] fused to the light chain of the Fab. MaxiSorp microtiter plates were coated with anti-gD 1766 at 10 μg/ml in PBS over night and then blocked with Casein Blocker. Phage from culture supernatants were serially diluted in PBST containing 0.5% BSA in a tissue culture microtiter plate and transferred to the coated wells for 1 h to capture the Fab displaying phage. The plate was washed with PBST and HRP conjugated anti-M13 (Amersham Pharmacia Biotech) was added (1:5000 in PBST containing 0.5% BSA) for 40 min. The plate was washed with PBST and developed by adding Tetramethylbenzidine substrate (Kirkegaard and Perry Laboratories, Gaithersburg, Md.). The absorbance at 405 nm was used as an estimate of the Fab display level on the surface of the phage. Phage preparations were normalized for display by dilution. Low displaying phage (e.g. the chimera) were used neat for FACS analysis.
For FACS analysis of phage binding, cells were removed from the plate using 2 mM EDTA, collected in a 15 mL conical bottom tube and pelleted by centrifugation. Cells (5×10⁵ cells per sample) were re-suspended in 100 μL of phage (normalized by display level) in FACS buffer (1% FBS, PBS with 2 mM EDTA) and incubated for 1-2 hours on ice. Samples were washed twice with FACS buffer by centrifugation. Anti-M13 5G7 control antibody (Genentech, Inc. South San Francisco, Calif.) was added at 2 μg/mL and incubated on ice for at least 45 minutes. Samples were washed twice with FACS buffer by centrifugation. A 1:200 dilution of anti-mouse PE (R-phycoerythrin goat anti-mouse IgG Fcy Fragment, Jackson Immunoresearch) was added and incubated on ice for 30 minutes. Samples were again washed twice with FACS buffer by centrifugation and analyzed by FACS.

human STEAP-1 [2] = target: T1, human STEAP-1; experiment: Scatchard analysis on 293-LB50 cells, average value
Text: (§1) IgG was purified with Protein G affinity chromatography.

human STEAP-1 [3] = target: T1, human STEAP-1; experiment: Scatchard analysis on LNCaP.BR cells, Assay 740; displacement curve and Scatchard plot
Text: as §1

[4] = target: T2, cynomolgus monkey STEAP-1 (cynomolgus monkey, UniProt Q9UHE8 1-339 (human entry)); experiment: Scatchard analysis on 293 cells transiently expressing cynomolgus STEAP-1 (293-Transient Cyno Steap1); side note: Same Affinity for Human & Cyno
T2 construct: the expressing cell line is not described; also called cyno STEAP-1
T2 sequence (Q9UHE8 other isoform, or with tags, fused parts or gaps): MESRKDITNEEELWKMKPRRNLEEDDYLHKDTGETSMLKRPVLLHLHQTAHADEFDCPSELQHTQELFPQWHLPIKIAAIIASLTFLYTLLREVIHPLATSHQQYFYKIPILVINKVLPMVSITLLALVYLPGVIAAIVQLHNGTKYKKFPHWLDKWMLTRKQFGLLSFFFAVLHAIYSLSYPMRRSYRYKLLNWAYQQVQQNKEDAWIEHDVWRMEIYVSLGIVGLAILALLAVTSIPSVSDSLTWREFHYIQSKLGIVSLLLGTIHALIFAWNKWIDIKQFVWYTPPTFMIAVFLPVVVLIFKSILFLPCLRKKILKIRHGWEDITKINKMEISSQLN

human STEAP-1 [5] = target: T1, human STEAP-1; experiment: Scatchard analysis on 293.LB50 cells, Assay 738; displacement curve and Scatchard plot
Text: as §1

human STEAP-1 [6] = target: T1, human STEAP-1; experiment: Scatchard analysis on LNCaP-BR cells, average value
Text: as §1

human STEAP-1 [7] = target: T1, human STEAP-1; experiment: Scatchard analysis on 293.LB50 cells, Assay 737; displacement curve and Scatchard plot
Text: as §1

human STEAP-1 [8] = target: T1, human STEAP-1; experiment: Scatchard analysis on LNCaP.BR cells, Assay 739; displacement curve (Bound/Total against Total, nM) and Scatchard plot (Bound/Free against Bound, pM)
Text: as §1

human STEAP-1 [9] = target: T1, human STEAP-1; experiment: Scatchard analysis on 293 cells transiently expressing human STEAP-1 (293-Transient Human Steap1)
Text: as §1

human STEAP-1 [10] = target: T1, human STEAP-1; experiment: Scatchard analysis on 293 STEAP-1 NT LB50 cells
Text: as §1

B1: 37 Phage (Fab, V domains shown)
VH: EVQLVESGGGLVQPGGSLRLSCAASGYSITSDYAWNWIRQAPGKGLEWVGYISNSGSTSYNPSLKSRFTISRDNSKNTLYLQMNSLRAEDTAVYYCARERNYDYDDYYYAMDYWGQGTLVTVSS
VL: DIQMTQSPSSLSASVGDRVTITCKSSQSLLYRSNQKNYLAWYQQKPGKAPKLLIYWASTRESGVPSRFSGSGSGTDFTLTISSLQPEDFATYYCQQYYNYPRTFGQGTKVEIKR
notes: monovalent Fab-g3 phage display; also called V37I variant of the 120 graft
Human STEAP-1 [1]
  binding result: binds

B2: 48 Phage (Fab, V domains shown)
VH: EVQLVESGGGLVQPGGSLRLSCAASGYSITSDYAWNWVRQAPGKGLEWMGYISNSGSTSYNPSLKSRFTISRDNSKNTLYLQMNSLRAEDTAVYYCARERNYDYDDYYYAMDYWGQGTLVTVSS
VL: DIQMTQSPSSLSASVGDRVTITCKSSQSLLYRSNQKNYLAWYQQKPGKAPKLLIYWASTRESGVPSRFSGSGSGTDFTLTISSLQPEDFATYYCQQYYNYPRTFGQGTKVEIKR
notes: monovalent Fab-g3 phage display; also called V48M variant of the 120 graft
Human STEAP-1 [1]
  binding result: binds

B3: 67 Phage (Fab, V domains shown)
VH: EVQLVESGGGLVQPGGSLRLSCAASGYSITSDYAWNWVRQAPGKGLEWVGYISNSGSTSYNPSLKSRITISRDNSKNTLYLQMNSLRAEDTAVYYCARERNYDYDDYYYAMDYWGQGTLVTVSS
VL: DIQMTQSPSSLSASVGDRVTITCKSSQSLLYRSNQKNYLAWYQQKPGKAPKLLIYWASTRESGVPSRFSGSGSGTDFTLTISSLQPEDFATYYCQQYYNYPRTFGQGTKVEIKR
notes: monovalent Fab-g3 phage display; also called F67I variant of the 120 graft
Human STEAP-1 [1]
  binding result: binds

B4: Original Thio 120V24 (antibody, V domains shown)
VH: EVQLVESGGGLVQPGGSLRLSCAVSGYSITSDYAWNWVRQAPGKGLEWVGYISNSGSTSYNPSLKSRFTISRDNSKNTLYLQMNSLRAEDTAVYYCARERNYDYDDYYYAMDYWGQGTLVTVSS
VL: DIQMTQSPSSLSASVGDRVTITCKSSQSLLYRSNQKNYLAWYQQKPGKAPKLLIYWASTRESGVPSRFSGSGSGTDFTLTISSLQPEDFATYYCQQYYNYPRTFGQGTKVEIKR
notes: cysteine engineered form of humanized 120.v24; also called Orig Thio PUR 12813; Thio Mab
Human STEAP-1 [2]
  Kd: 1.9 nM
Human STEAP-1 [3]
  Kd: 1.7 nM
[4]
  Kd: 1.1 nM
Human STEAP-1 [5]
  Kd: 2 nM
Human STEAP-1 [6]
  Kd: 1.4 nM
Human STEAP-1 [7]
  Kd: 1.7 nM
Human STEAP-1 [8]
  Kd: 1.1 nM
Human STEAP-1 [9]
  Kd: 1.4 nM

B5: humanized anti-STEAP-1 120v.24 (antibody, name in Kabat numbering, V domains shown)
VH: EVQLVESGGGLVQPGGSLRLSCAVSGYSITSDYAWNWVRQAPGKGLEWVGYISNSGSTSYNPSLKSRFTISRDNSKNTLYLQMNSLRAEDTAVYYCARERNYDYDDYYYAMDYWGQGTLVTVSS
VL: DIQMTQSPSSLSASVGDRVTITCKSSQSLLYRSNQKNYLAWYQQKPGKAPKLLIYWASTRESGVPSRFSGSGSGTDFTLTISSLQPEDFATYYCQQYYNYPRTFGQGTKVEIKR
notes: constant regions not specified; also called humanized 120v.24 (clone 67); humanized version 24
Human STEAP-1 [10]
  fold improvement in Kd over the 120 chimera and murine M2-120.545: 2 fold
